Test results as given in the supplement of paper PMC9112550, “Optimization of the antimicrobial peptide Bac7 by deep mutational scanning” (BMC Biology, 2022).

Each sequence was assayed on Escherichia coli TOP10 (assay: shrunken log2 fold change of peptide-encoding DNA abundance (4.5 h post-induction vs induction); higher = less antimicrobial activity (less host growth inhibition)). Conditions: time post-induction: 4.5 h; library: site-saturation at positions 5, 18, 19, 20.
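Note: peptides expressed intracellularly from a pBAD plasmid library in pooled LB shake-flask culture, induced with 0.3% L-arabinose, DNA abundance read by NGS, three biological replicates, DESeq2 with apeglm shrinkage.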

RRIRARPPRLPRPRPRPRDNPRP was tested. Which “shrunken log2 fold change” value did it give?
Its value is 0.295.

With RRIRARPPRLPRPRPRPREQPRP as the sequence, how does the “shrunken log2 fold change” value read?
The value was 0.825.

Which “shrunken log2 fold change” value does the source give for RRIRARPPRLPRPRPRPRFNPRP here?
The value was 0.269.

Which “shrunken log2 fold change” value does the source give for RRIRARPPRLPRPRPRPRILPRP here?
The value was 0.323.

How did the “shrunken log2 fold change” value turn out when RRIRARPPRLPRPRPRPRIYPRP was run?
The value was -0.0488.

How did the “shrunken log2 fold change” value turn out when RRIRARPPRLPRPRPRPRKCPRP was run?
Its value is 0.154.

For RRIRARPPRLPRPRPRPRKQPRP, which “shrunken log2 fold change” value is on record?
Its value is 0.301.

With RRIRARPPRLPRPRPRPRLDPRP as the sequence, how does the “shrunken log2 fold change” value read?
The value was 0.291.

RRIRARPPRLPRPRPRPRMIPRP was tested. Which “shrunken log2 fold change” value did it give?
Its value is 0.219.

For RRIRARPPRLPRPRPRPRPKPRP, which “shrunken log2 fold change” value is on record?
Its value is 0.916.

RRIRARPPRLPRPRPRPRPWPRP was tested. Which “shrunken log2 fold change” value did it give?
Its value is 0.499.

With RRIRARPPRLPRPRPRPRPYPRP as the sequence, how does the “shrunken log2 fold change” value read?
The value was 0.375.

With RRIRARPPRLPRPRPRPRRHPRP as the sequence, how does the “shrunken log2 fold change” value read?
Its value is 1.65.

How did the “shrunken log2 fold change” value turn out when RRIRARPPRLPRPRPRPRSCPRP was run?
The value was 0.306.

RRIRARPPRLPRPRPRPRTGPRP was tested. Which “shrunken log2 fold change” value did it give?
Its value is 0.387.

With RRIRARPPRLPRPRPRPRTRPRP as the sequence, how does the “shrunken log2 fold change” value read?
The value was 1.05.

How did the “shrunken log2 fold change” value turn out when RRIRARPPRLPRPRPRPRYTPRP was run?
The value was -0.0676.

With RRIRARPPRLPRPRPRPSCFPRP as the sequence, how does the “shrunken log2 fold change” value read?
Its value is 0.0871.

For RRIRARPPRLPRPRPRPSCPPRP, which “shrunken log2 fold change” value is on record?
Its value is 0.131.

Which “shrunken log2 fold change” value does the source give for RRIRARPPRLPRPRPRPSCWPRP here?
The value was 0.628.

For RRIRARPPRLPRPRPRPSDHPRP, which “shrunken log2 fold change” value is on record?
The value was -0.134.

For RRIRARPPRLPRPRPRPSDWPRP, which “shrunken log2 fold change” value is on record?
Its value is 0.402.

Which “shrunken log2 fold change” value does the source give for RRIRARPPRLPRPRPRPSDYPRP here?
Its value is -0.108.

For RRIRARPPRLPRPRPRPSGEPRP, which “shrunken log2 fold change” value is on record?
The value was 0.65.

With RRIRARPPRLPRPRPRPSGSPRP as the sequence, how does the “shrunken log2 fold change” value read?
Its value is 0.216.

How did the “shrunken log2 fold change” value turn out when RRIRARPPRLPRPRPRPSHPPRP was run?
Its value is -0.0758.

Which “shrunken log2 fold change” value does the source give for RRIRARPPRLPRPRPRPSHQPRP here?
The value was -0.138.

RRIRARPPRLPRPRPRPSILPRP was tested. Which “shrunken log2 fold change” value did it give?
The value was -0.156.

Which “shrunken log2 fold change” value does the source give for RRIRARPPRLPRPRPRPSKSPRP here?
The value was 0.0305.

Which “shrunken log2 fold change” value does the source give for RRIRARPPRLPRPRPRPSLAPRP here?
The value was 0.54.

Which “shrunken log2 fold change” value does the source give for RRIRARPPRLPRPRPRPSLVPRP here?
Its value is 0.413.

How did the “shrunken log2 fold change” value turn out when RRIRARPPRLPRPRPRPSMKPRP was run?
The value was -0.037.

Which “shrunken log2 fold change” value does the source give for RRIRARPPRLPRPRPRPSMQPRP here?
Its value is 0.352.

Which “shrunken log2 fold change” value does the source give for RRIRARPPRLPRPRPRPSNDPRP here?
The value was -0.213.

With RRIRARPPRLPRPRPRPSNGPRP as the sequence, how does the “shrunken log2 fold change” value read?
Its value is -0.318.

Which “shrunken log2 fold change” value does the source give for RRIRARPPRLPRPRPRPSPGPRP here?
Its value is 0.284.

For RRIRARPPRLPRPRPRPSPMPRP, which “shrunken log2 fold change” value is on record?
Its value is 0.173.

With RRIRARPPRLPRPRPRPSPVPRP as the sequence, how does the “shrunken log2 fold change” value read?
The value was 0.355.

Which “shrunken log2 fold change” value does the source give for RRIRARPPRLPRPRPRPSPWPRP here?
The value was 0.348.

Which “shrunken log2 fold change” value does the source give for RRIRARPPRLPRPRPRPSTCPRP here?
Its value is 0.0421.

How did the “shrunken log2 fold change” value turn out when RRIRARPPRLPRPRPRPSTFPRP was run?
Its value is 0.435.

For RRIRARPPRLPRPRPRPSVDPRP, which “shrunken log2 fold change” value is on record?
The value was 0.125.

For RRIRARPPRLPRPRPRPSWMPRP, which “shrunken log2 fold change” value is on record?
The value was -0.131.

RRIRARPPRLPRPRPRPSWNPRP was tested. Which “shrunken log2 fold change” value did it give?
The value was -0.19.

With RRIRARPPRLPRPRPRPSWQPRP as the sequence, how does the “shrunken log2 fold change” value read?
The value was 0.223.

Which “shrunken log2 fold change” value does the source give for RRIRARPPRLPRPRPRPSWVPRP here?
Its value is -0.174.

How did the “shrunken log2 fold change” value turn out when RRIRARPPRLPRPRPRPTAGPRP was run?
The value was 0.902.

Which “shrunken log2 fold change” value does the source give for RRIRARPPRLPRPRPRPTCGPRP here?
The value was 0.512.

With RRIRARPPRLPRPRPRPTCHPRP as the sequence, how does the “shrunken log2 fold change” value read?
Its value is 0.427.

RRIRARPPRLPRPRPRPTDYPRP was tested. Which “shrunken log2 fold change” value did it give?
The value was -0.0499.

Which “shrunken log2 fold change” value does the source give for RRIRARPPRLPRPRPRPTEDPRP here?
Its value is 0.269.

For RRIRARPPRLPRPRPRPTELPRP, which “shrunken log2 fold change” value is on record?
The value was 0.595.

For RRIRARPPRLPRPRPRPTFKPRP, which “shrunken log2 fold change” value is on record?
Its value is 0.341.

How did the “shrunken log2 fold change” value turn out when RRIRARPPRLPRPRPRPTGCPRP was run?
Its value is 0.458.

RRIRARPPRLPRPRPRPTHAPRP was tested. Which “shrunken log2 fold change” value did it give?
Its value is 0.528.

For RRIRARPPRLPRPRPRPTIHPRP, which “shrunken log2 fold change” value is on record?
The value was -0.0543.

For RRIRARPPRLPRPRPRPTIWPRP, which “shrunken log2 fold change” value is on record?
Its value is 0.206.

With RRIRARPPRLPRPRPRPTLIPRP as the sequence, how does the “shrunken log2 fold change” value read?
Its value is 0.573.

Which “shrunken log2 fold change” value does the source give for RRIRARPPRLPRPRPRPTNHPRP here?
Its value is -0.181.

How did the “shrunken log2 fold change” value turn out when RRIRARPPRLPRPRPRPTPMPRP was run?
Its value is 0.528.

Which “shrunken log2 fold change” value does the source give for RRIRARPPRLPRPRPRPTPTPRP here?
The value was 0.968.

With RRIRARPPRLPRPRPRPTPWPRP as the sequence, how does the “shrunken log2 fold change” value read?
The value was 0.563.

Which “shrunken log2 fold change” value does the source give for RRIRARPPRLPRPRPRPTPYPRP here?
Its value is -0.0244.

How did the “shrunken log2 fold change” value turn out when RRIRARPPRLPRPRPRPTQLPRP was run?
Its value is 0.611.

How did the “shrunken log2 fold change” value turn out when RRIRARPPRLPRPRPRPTQRPRP was run?
The value was 0.915.

RRIRARPPRLPRPRPRPTQTPRP was tested. Which “shrunken log2 fold change” value did it give?
The value was 0.69.

How did the “shrunken log2 fold change” value turn out when RRIRARPPRLPRPRPRPTRGPRP was run?
Its value is 0.301.

With RRIRARPPRLPRPRPRPTRIPRP as the sequence, how does the “shrunken log2 fold change” value read?
Its value is 2.82.

Which “shrunken log2 fold change” value does the source give for RRIRARPPRLPRPRPRPTTAPRP here?
Its value is 0.514.

With RRIRARPPRLPRPRPRPTTDPRP as the sequence, how does the “shrunken log2 fold change” value read?
The value was 0.745.

With RRIRARPPRLPRPRPRPTVQPRP as the sequence, how does the “shrunken log2 fold change” value read?
The value was 0.549.

With RRIRARPPRLPRPRPRPTYQPRP as the sequence, how does the “shrunken log2 fold change” value read?
The value was -0.163.

RRIRARPPRLPRPRPRPVASPRP was tested. Which “shrunken log2 fold change” value did it give?
Its value is 0.595.

RRIRARPPRLPRPRPRPVCAPRP was tested. Which “shrunken log2 fold change” value did it give?
Its value is 0.571.

With RRIRARPPRLPRPRPRPVCCPRP as the sequence, how does the “shrunken log2 fold change” value read?
The value was 0.573.
